Results published in patent US20260250318A1, “COMPOSITIONS AND METHODS FOR CROSSING THE BLOOD BRAIN BARRIER” (VOYAGER THERAPEUTICS, INC., priority 2022, published 2026).

How the values were obtained:
Experiment in all cases: cell-based or functional assay
[1] = target: T1, human ALPL expressed on cells (alkaline phosphatase tissue-nonspecific isozyme, NM_000478.4) (human, UniProt P05186 18-501)
T1 sequence: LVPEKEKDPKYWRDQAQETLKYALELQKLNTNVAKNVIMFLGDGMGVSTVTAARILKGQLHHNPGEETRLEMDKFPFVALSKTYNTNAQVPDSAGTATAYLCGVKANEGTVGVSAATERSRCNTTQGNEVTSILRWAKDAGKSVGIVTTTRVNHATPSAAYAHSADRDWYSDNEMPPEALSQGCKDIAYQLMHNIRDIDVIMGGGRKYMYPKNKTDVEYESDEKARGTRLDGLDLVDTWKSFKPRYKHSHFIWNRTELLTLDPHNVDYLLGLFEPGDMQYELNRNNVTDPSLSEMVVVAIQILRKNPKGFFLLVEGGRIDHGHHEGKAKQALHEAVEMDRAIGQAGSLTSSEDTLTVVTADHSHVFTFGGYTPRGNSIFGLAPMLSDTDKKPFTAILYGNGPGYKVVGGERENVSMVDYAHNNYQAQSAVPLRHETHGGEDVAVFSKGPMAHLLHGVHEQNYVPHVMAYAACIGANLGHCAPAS

[2] = target: T1, human ALPL expressed on cells (alkaline …); remark: listed apart in the source
[3] = target: T2, ALPL with a deletion of the ER localization signal (ALPL transcript variant 2, NM_001127501) (human, UniProt P05186 56-501)
T2 sequence: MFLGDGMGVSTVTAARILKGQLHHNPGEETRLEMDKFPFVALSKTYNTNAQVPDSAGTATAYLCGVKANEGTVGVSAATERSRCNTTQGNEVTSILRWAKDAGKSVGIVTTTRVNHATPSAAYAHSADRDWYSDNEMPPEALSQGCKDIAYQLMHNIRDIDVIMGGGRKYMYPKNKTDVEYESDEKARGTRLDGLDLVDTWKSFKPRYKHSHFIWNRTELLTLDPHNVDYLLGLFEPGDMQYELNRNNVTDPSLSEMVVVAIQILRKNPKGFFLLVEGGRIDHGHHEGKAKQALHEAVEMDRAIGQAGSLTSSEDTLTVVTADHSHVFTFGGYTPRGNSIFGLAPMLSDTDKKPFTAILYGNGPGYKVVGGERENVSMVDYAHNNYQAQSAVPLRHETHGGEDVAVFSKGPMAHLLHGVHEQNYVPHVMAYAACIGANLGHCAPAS

[4] = target: T1, human ALPL expressed on cells (alkaline …); remark: listed apart in the source
[5] = target: T3, murine ALPL ortholog expressed on HEK 293T cells (NM_001287172.1) (mouse, UniProt P09242 18-501)
T3 sequence: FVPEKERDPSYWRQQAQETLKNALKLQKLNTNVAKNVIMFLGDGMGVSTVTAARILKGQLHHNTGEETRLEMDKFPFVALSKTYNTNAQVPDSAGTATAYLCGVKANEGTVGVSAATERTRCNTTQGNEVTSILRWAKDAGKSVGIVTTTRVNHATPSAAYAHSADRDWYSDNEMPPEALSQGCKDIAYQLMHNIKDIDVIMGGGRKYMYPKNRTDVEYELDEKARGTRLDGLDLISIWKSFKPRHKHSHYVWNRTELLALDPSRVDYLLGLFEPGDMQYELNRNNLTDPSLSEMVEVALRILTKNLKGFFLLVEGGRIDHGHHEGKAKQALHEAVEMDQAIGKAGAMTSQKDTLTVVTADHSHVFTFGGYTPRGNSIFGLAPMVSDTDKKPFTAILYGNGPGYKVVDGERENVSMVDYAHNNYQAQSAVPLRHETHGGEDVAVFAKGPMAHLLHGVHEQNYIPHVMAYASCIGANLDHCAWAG

[6] = target: T4, cynomolgus ALPL ortholog expressed on HEK 293T cells (XM_005544525) (Macaca fascicularis)
T4 chain: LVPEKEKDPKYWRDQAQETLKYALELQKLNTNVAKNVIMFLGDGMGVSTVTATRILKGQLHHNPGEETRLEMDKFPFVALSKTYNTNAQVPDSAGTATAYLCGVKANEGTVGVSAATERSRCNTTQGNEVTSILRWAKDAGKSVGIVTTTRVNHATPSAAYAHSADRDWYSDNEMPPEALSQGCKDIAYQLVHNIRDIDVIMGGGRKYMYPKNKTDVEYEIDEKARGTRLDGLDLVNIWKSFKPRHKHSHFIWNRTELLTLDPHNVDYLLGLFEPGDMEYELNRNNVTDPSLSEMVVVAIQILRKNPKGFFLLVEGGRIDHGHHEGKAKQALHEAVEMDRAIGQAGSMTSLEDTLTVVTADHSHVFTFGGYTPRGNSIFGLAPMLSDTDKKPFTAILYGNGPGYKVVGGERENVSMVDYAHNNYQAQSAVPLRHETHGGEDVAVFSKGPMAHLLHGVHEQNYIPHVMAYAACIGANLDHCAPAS

B1: TTM-002 capsid variant (AAV particle comprising the TTM-002 AAV9 capsid variant) (other)
chain 1: MAADGYLPDWLEDNLSEGIREWWALKPGAPQPKANQQHQDNARGLVLPGYKYLGPGNGLDKGEPVNAADAAALEHDKAYDQQLKAGDNPYLKYNHADAEFQERLKEDTSFGGNLGRAVFQAKKRLLEPLGLVEEAAKTAPGKKRPVEQSPQEPDSSAGIGKSGAQPAKKRLNFGQTGDTESVPDPQPIGEPPAAPSGVGSLTMASGGGAPVADNNEGADGVGSSSGNWHCDSQWLGDRVITTSTRTWALPTYNNHLYKQISNSTSGGSSNDNAYFGYSTPWGYFDFNRFHCHFSPRDWQRLINNNWGFRPKRLNFKLFNIQVKEVTDNNGVKTIANNLTSTVQVFTDSDYQLPYVLGSAHEGCLPPFPADVFMIPQYGYLTLNDGSQAVGRSSFYCLEYFPSQMLRTGNNFQFSYEFENVPFHSSYAHSQSLDRLMNPLIDQYLYYLSKTINGHDSPHKSGQNQQTLKFSVAGPSNMAVQGRNYIPGPSYRQQRVSTTVTQNNNSEFAWPGASSWALNGRNSLMNPGPAMASHKEGEDRFFPLSGSLIFGKQGTGRDNVDADKVMITNEEEIKTTNPVATESYGQVATNHQSAQAQAQTGWVQNQGILPGMVWQDRDVYLQGPIWAKIPHTDGNFHPSPLMGGFGMKHPPPQILIKNTPVPADPPTAFNKDKLNSFITQYSTGQVSVEIEWELQKENSKRWNPEIQYTSNYYKSNNVEFAVNTEGVYSEPRPIGTRYLTRNL
chain 2: TAPGKKRPVEQSPQEPDSSAGIGKSGAQPAKKRLNFGQTGDTESVPDPQPIGEPPAAPSGVGSLTMASGGGAPVADNNEGADGVGSSSGNWHCDSQWLGDRVITTSTRTWALPTYNNHLYKQISNSTSGGSSNDNAYFGYSTPWGYFDFNRFHCHFSPRDWQRLINNNWGFRPKRLNFKLFNIQVKEVTDNNGVKTIANNLTSTVQVFTDSDYQLPYVLGSAHEGCLPPFPADVFMIPQYGYLTLNDGSQAVGRSSFYCLEYFPSQMLRTGNNFQFSYEFENVPFHSSYAHSQSLDRLMNPLIDQYLYYLSKTINGHDSPHKSGQNQQTLKFSVAGPSNMAVQGRNYIPGPSYRQQRVSTTVTQNNNSEFAWPGASSWALNGRNSLMNPGPAMASHKEGEDRFFPLSGSLIFGKQGTGRDNVDADKVMITNEEEIKTTNPVATESYGQVATNHQSAQAQAQTGWVQNQGILPGMVWQDRDVYLQGPIWAKIPHTDGNFHPSPLMGGFGMKHPPPQILIKNTPVPADPPTAFNKDKLNSFITQYSTGQVSVEIEWELQKENSKRWNPEIQYTSNYYKSNNVEFAVNTEGVYSEPRPIGTRYLTRNL
chain 3: MASGGGAPVADNNEGADGVGSSSGNWHCDSQWLGDRVITTSTRTWALPTYNNHLYKQISNSTSGGSSNDNAYFGYSTPWGYFDFNRFHCHFSPRDWQRLINNNWGFRPKRLNFKLFNIQVKEVTDNNGVKTIANNLTSTVQVFTDSDYQLPYVLGSAHEGCLPPFPADVFMIPQYGYLTLNDGSQAVGRSSFYCLEYFPSQMLRTGNNFQFSYEFENVPFHSSYAHSQSLDRLMNPLIDQYLYYLSKTINGHDSPHKSGQNQQTLKFSVAGPSNMAVQGRNYIPGPSYRQQRVSTTVTQNNNSEFAWPGASSWALNGRNSLMNPGPAMASHKEGEDRFFPLSGSLIFGKQGTGRDNVDADKVMITNEEEIKTTNPVATESYGQVATNHQSAQAQAQTGWVQNQGILPGMVWQDRDVYLQGPIWAKIPHTDGNFHPSPLMGGFGMKHPPPQILIKNTPVPADPPTAFNKDKLNSFITQYSTGQVSVEIEWELQKENSKRWNPEIQYTSNYYKSNNVEFAVNTEGVYSEPRPIGTRYLTRNL
[1]
  transcytosis assay: virus detected in the bottom chamber (percent to the initial virus, qPCR), MDCK ALPL overexpressing cells against MDCK cells that did not express ALPL: 149 fold
  transcytosis assay: virus detected in the bottom chamber (percent to the initial virus, qPCR), MDCK ALPL overexpressing cells, TTM-002 against AAV9: 252 fold
  transcytosis assay: virus detected in the bottom chamber (percent to the initial virus, qPCR), single MDCK clone expressing ALPL, TTM-002 against AAV9: 7480 fold
[2]
  fold change in luciferase activity relative to the pCMV6 control cells (cells transfected with ALPL): 24 fold
[3]
  fold change in luciferase activity relative to the pCMV6 control cells (cells transfected with ALPL comprising a deletion of the ER localization signal): 2 fold
[4]
  fold change in luciferase activity relative to the pCMV6 control cells (Human ALPL): 60.3 fold
[5]
  fold change in luciferase activity relative to the pCMV6 control cells (Murine ALPL): 57.2 fold
[6]
  fold change in luciferase activity relative to the pCMV6 control cells (Cynomolgus ALPL): 81.5 fold
